In article doi:10.1101/2025.02.04.636450 one finds stoichiometry N and GFP molecules per pentamer (GFP molecules per pentamer) data, which are given here for 2 substances.

In assay [1] the target is circularly permuted AaLS with a Strep II tag in place of the His-tag region (cpAaLS(Strep)) (Aquifex aeolicus).
For assay [2], the target named is circularly permuted AaLS with a His-tag in the linker connecting native termini (cpAaLS(His)) (Aquifex aeolicus). Briefly: absorbance ratio at 280/475 nm.
In assay [3] the target is wildtype lumazine synthase from Aquifex aeolicus (AaLS-wt) (Aquifex aeolicus) (UniProt O66529). Briefly: absorbance ratio at 280/475 nm.

As usually defined, the stoichiometry N is a count of units in the complex or per binding partner.

As for “circularly permuted AaLS with a Strep II tag in place of the His-tag region (cpAaLS(Strep))”, the stoichiometry N in assay [1] came to 5.

Regarding “cpAaLS-GFP-SsrA (GFP-SsrA fused to the C-terminus of cpAaLS)”, the GFP molecules per pentamer (GFP molecules per pentamer) in assay [2] came out at 0.14; in assay [3] it was 0.11.
